Legend:
[1] = target: T1, human folate receptor alpha (FRA) (human, UniProt P15328 25-234); experiment: flow cytometry on OVCAR-3B cells, 1.1 µg/mL
T1 construct: In the assays FRA is the endogenous protein on FRA-expressing human cancer cell lines (SK-OV-3, OVCAR-3, OVCAR-3B, NCI-H2110, NCI-H292); also called human FRA
Procedure: (§1) 1×10⁵ cells were seeded per well in a v-bottomed 96-well plate and incubated with 50 μl of the unconjugated Abs or the ADCs at titrated concentrations or isotype control antibody human IgG at 10 μg/mL. After 60 minutes of incubation at 4° C., cells were washed once with 200 μl FACS buffer (1×PBS containing 1% FBS), stained with 50 μl of 1 μg/ml goat F(ab′)2-anti-human IgG (H+L)-RPE or goat anti-human IgG-RPE (SOUTHERN BIOTECH®, Cat. No. 2043-09 or 2040-09) in FACS buffer and then incubated at 4° C. for 30 min Cells were washed once with FACS buffer and analyzed by flow cytometer (BD LSR, BD Life Sciences).
(§2) The binding activities of site-specific conjugates of hLK26-Cys variants-Tap18Hr1 were evaluated by flow cytometric analysis in ovarian cancer SK-OV-3 and OVCAR-3B (Table 9-10) and lung cancer NCI-H2110 and NCI-H292 (Table 11-12) cells. The Mean fluorescence intensity (MFI) values in the tables represent binding activity of ADCs at tested concentration. […] The IgG4p variants-Tap18Hr1 conjugates also bind to all the FRA positive cancer cells tested here, but the fluorescent intensities were generally lower than those observed with IgG1 variants. This decrease in binding activity is likely attributed to IgG4 isotype rather than cysteine mutation. Overall, the site-specific conjugated hLK26-Cys variants retain antigen reactivity to the ovarian and lung cancer cells tested.

[2] = target: T1, human folate receptor alpha (FRA); experiment: flow cytometry on NCI-H2110 cells, 3.3 µg/mL
Procedure: as §1, §2

[3] = target: T1, human folate receptor alpha (FRA); experiment: flow cytometry on SK-OV-3 cells, 1.1 µg/mL
Procedure: as §1, §2

[4] = target: T1, human folate receptor alpha (FRA); experiment: flow cytometry on NCI-H292 cells, 3.3 µg/mL
Procedure: as §1, §2

T1 sequence (P15328 25-234 limits assumed): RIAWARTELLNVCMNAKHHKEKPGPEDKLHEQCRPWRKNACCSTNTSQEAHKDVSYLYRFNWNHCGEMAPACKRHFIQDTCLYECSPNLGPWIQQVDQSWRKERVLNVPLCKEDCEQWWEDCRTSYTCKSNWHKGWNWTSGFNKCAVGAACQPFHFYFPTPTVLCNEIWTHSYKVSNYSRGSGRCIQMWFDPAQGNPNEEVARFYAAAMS

B1: hLK26-T155C-IgG4p-Tap18Hr1 (antibody, name in EU numbering)
heavy: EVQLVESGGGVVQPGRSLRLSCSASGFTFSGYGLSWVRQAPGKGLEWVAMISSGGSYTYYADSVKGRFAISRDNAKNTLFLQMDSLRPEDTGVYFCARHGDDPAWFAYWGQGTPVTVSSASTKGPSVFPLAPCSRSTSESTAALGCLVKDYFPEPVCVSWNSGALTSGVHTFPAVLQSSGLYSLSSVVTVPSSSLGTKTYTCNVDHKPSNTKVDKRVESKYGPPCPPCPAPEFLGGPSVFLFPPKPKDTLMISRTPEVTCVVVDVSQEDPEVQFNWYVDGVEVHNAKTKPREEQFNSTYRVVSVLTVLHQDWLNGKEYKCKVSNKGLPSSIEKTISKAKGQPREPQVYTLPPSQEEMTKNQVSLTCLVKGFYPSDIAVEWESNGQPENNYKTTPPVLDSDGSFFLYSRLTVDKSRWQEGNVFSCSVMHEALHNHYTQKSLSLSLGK
light: DIQLTQSPSSLSASVGDRVTITCSVSSSISSNNLHWYQQKPGKAPKPWIYGTSNLASGVPSRFSGSGSGTDYTFTISSLQPEDIATYYCQQWSSYPYMYTFGQGTKVEIKRTVAAPSVFIFPPSDEQLKSGTASVVCLLNNFYPREAKVQWKVDNALQSGNSQESVTEQDSKDSTYSLSSTLTLSKADYEKHKVYACEVTHQGLSSPVTKSFNRGEC
modifications: Tap18Hr1 linker-drug on the introduced Cys 155 (EU numbering)
notes: Site-specific ADC
MFI [1]: 806 MFI | MFI [2]: 494 MFI | MFI [3]: 1890 MFI | MFI [4]: 1180 MFI

B2: hLK26-IgG1 (antibody)
heavy: not shown
light: DIQLTQSPSSLSASVGDRVTITCSVSSSISSNNLHWYQQKPGKAPKPWIYGTSNLASGVPSRFSGSGSGTDYTFTISSLQPEDIATYYCQQWSSYPYMYTFGQGTKVEIKRTVAAPSVFIFPPSDEQLKSGTASVVCLLNNFYPREAKVQWKVDNALQSGNSQESVTEQDSKDSTYSLSSTLTLSKADYEKHKVYACEVTHQGLSSPVTKSFNRGEC
notes: Humanized anti-FRA antibody, human IgG1 / kappa, unconjugated; also called naked Ab hLK26-IgG1; unconjugated hLK26-IgG1
MFI [1]: 1150 MFI | MFI [4]: 1460 MFI

B3: hLK26-T155C-IgG1-Tap18Hr1 (antibody, name in EU numbering)
heavy: not shown
light: DIQLTQSPSSLSASVGDRVTITCSVSSSISSNNLHWYQQKPGKAPKPWIYGTSNLASGVPSRFSGSGSGTDYTFTISSLQPEDIATYYCQQWSSYPYMYTFGQGTKVEIKRTVAAPSVFIFPPSDEQLKSGTASVVCLLNNFYPREAKVQWKVDNALQSGNSQESVTEQDSKDSTYSLSSTLTLSKADYEKHKVYACEVTHQGLSSPVTKSFNRGEC
modifications: Tap18Hr1 linker-drug on the introduced Cys 155 (EU numbering)
notes: Site-specific ADC
MFI [1]: 1060 MFI | MFI [2]: 649 MFI | MFI [3]: 2470 MFI | MFI [4]: 1450 MFI

B4: hLK26-L201C-IgG4p-Tap18Hr1 (antibody, name in EU numbering)
heavy: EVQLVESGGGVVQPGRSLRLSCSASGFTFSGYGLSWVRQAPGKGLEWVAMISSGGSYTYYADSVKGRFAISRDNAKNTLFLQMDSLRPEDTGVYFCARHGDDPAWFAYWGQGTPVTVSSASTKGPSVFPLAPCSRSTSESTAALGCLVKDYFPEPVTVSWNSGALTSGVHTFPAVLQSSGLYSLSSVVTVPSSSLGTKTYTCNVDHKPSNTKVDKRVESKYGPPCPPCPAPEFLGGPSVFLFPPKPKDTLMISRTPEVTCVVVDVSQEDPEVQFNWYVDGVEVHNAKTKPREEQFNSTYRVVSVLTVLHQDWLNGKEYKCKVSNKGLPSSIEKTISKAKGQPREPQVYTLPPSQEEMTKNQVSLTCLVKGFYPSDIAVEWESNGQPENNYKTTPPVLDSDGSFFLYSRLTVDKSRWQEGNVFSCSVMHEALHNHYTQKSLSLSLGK
light: DIQLTQSPSSLSASVGDRVTITCSVSSSISSNNLHWYQQKPGKAPKPWIYGTSNLASGVPSRFSGSGSGTDYTFTISSLQPEDIATYYCQQWSSYPYMYTFGQGTKVEIKRTVAAPSVFIFPPSDEQLKSGTASVVCLLNNFYPREAKVQWKVDNALQSGNSQESVTEQDSKDSTYSLSSTLTLSKADYEKHKVYACEVTHQGCSSPVTKSFNRGEC
modifications: Tap18Hr1 linker-drug on the introduced Cys 201 (EU numbering)
notes: Site-specific ADC with kappa light chain mutant
MFI [2]: 890 MFI | MFI [3]: 1000 MFI

B5: hLK26-S442C-IgG4p-Tap18Hr1 (antibody, name in EU numbering)
heavy: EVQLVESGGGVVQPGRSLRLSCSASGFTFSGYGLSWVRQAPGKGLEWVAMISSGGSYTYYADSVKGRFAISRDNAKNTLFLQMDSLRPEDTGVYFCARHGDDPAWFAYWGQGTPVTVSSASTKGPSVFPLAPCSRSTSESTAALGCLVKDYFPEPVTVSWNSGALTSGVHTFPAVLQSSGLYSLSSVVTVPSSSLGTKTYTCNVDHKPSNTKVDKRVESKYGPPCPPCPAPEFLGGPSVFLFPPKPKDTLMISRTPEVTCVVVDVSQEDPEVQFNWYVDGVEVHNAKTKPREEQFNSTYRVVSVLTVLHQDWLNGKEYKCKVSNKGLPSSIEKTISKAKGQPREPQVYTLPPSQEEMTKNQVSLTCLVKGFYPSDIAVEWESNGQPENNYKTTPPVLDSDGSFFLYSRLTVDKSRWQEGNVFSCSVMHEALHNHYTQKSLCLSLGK
light: DIQLTQSPSSLSASVGDRVTITCSVSSSISSNNLHWYQQKPGKAPKPWIYGTSNLASGVPSRFSGSGSGTDYTFTISSLQPEDIATYYCQQWSSYPYMYTFGQGTKVEIKRTVAAPSVFIFPPSDEQLKSGTASVVCLLNNFYPREAKVQWKVDNALQSGNSQESVTEQDSKDSTYSLSSTLTLSKADYEKHKVYACEVTHQGLSSPVTKSFNRGEC
modifications: Tap18Hr1 linker-drug on the introduced Cys 442 (EU numbering)
notes: Site-specific ADC
MFI [1]: 769 MFI | MFI [2]: 479 MFI | MFI [3]: 1880 MFI | MFI [4]: 1090 MFI

B6: hLK26-S442C-IgG1-Tap18Hr1 (antibody, name in EU numbering)
heavy: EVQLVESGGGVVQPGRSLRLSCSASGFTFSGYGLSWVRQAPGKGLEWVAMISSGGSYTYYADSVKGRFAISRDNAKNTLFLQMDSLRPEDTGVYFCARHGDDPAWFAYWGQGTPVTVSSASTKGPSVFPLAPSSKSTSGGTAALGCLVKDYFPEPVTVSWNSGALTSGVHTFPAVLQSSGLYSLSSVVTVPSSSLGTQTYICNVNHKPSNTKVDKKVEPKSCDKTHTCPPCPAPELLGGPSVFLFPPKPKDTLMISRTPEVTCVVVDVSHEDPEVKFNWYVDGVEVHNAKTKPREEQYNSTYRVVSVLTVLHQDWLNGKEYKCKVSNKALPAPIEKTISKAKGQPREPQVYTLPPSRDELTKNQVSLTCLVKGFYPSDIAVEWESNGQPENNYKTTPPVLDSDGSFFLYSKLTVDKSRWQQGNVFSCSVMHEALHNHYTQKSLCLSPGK
light: DIQLTQSPSSLSASVGDRVTITCSVSSSISSNNLHWYQQKPGKAPKPWIYGTSNLASGVPSRFSGSGSGTDYTFTISSLQPEDIATYYCQQWSSYPYMYTFGQGTKVEIKRTVAAPSVFIFPPSDEQLKSGTASVVCLLNNFYPREAKVQWKVDNALQSGNSQESVTEQDSKDSTYSLSSTLTLSKADYEKHKVYACEVTHQGLSSPVTKSFNRGEC
modifications: Tap18Hr1 linker-drug on the introduced Cys 442 (EU numbering)
notes: Site-specific ADC
MFI [1]: 967 MFI | MFI [2]: 605 MFI | MFI [3]: 2080 MFI | MFI [4]: 1280 MFI

B7: hLK26-T199C-IgG4p-Tap18Hr1 (antibody, name in EU numbering)
heavy: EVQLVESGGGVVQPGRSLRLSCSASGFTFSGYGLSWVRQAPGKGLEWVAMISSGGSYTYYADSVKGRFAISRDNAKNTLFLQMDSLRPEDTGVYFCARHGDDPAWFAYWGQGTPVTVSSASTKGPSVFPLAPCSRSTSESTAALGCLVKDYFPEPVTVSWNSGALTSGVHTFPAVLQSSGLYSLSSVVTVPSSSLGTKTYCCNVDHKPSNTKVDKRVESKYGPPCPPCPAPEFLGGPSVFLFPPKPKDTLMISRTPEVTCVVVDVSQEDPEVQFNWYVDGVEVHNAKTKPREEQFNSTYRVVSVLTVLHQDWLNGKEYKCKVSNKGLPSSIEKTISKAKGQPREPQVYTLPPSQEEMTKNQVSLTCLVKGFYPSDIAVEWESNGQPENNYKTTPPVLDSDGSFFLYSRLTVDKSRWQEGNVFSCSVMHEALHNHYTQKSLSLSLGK
light: DIQLTQSPSSLSASVGDRVTITCSVSSSISSNNLHWYQQKPGKAPKPWIYGTSNLASGVPSRFSGSGSGTDYTFTISSLQPEDIATYYCQQWSSYPYMYTFGQGTKVEIKRTVAAPSVFIFPPSDEQLKSGTASVVCLLNNFYPREAKVQWKVDNALQSGNSQESVTEQDSKDSTYSLSSTLTLSKADYEKHKVYACEVTHQGLSSPVTKSFNRGEC
modifications: Tap18Hr1 linker-drug on the introduced Cys 199 (EU numbering)
notes: Site-specific ADC
MFI [2]: 898 MFI | MFI [3]: 966 MFI

B8: hLK26-T206C-IgG1-Tap18Hr1 (antibody, name in EU numbering)
heavy: not shown
light: DIQLTQSPSSLSASVGDRVTITCSVSSSISSNNLHWYQQKPGKAPKPWIYGTSNLASGVPSRFSGSGSGTDYTFTISSLQPEDIATYYCQQWSSYPYMYTFGQGTKVEIKRTVAAPSVFIFPPSDEQLKSGTASVVCLLNNFYPREAKVQWKVDNALQSGNSQESVTEQDSKDSTYSLSSTLTLSKADYEKHKVYACEVTHQGLSSPVCKSFNRGEC
modifications: Tap18Hr1 linker-drug on the introduced Cys 206 (EU numbering)
notes: as for B4
MFI [2]: 1180 MFI | MFI [3]: 1270 MFI
